Results as given in the Human Domainome abundance scans (Beltran et al. 2025).

B1: FERM and PDZ domain-containing protein 4, residues 75 to 154; numbered along this chain, Q14CM0 (parent)
chain: APRKVEMRRDPVLGFGFVAGSEKPVVVRSVTPGGPSEGKLIPGDQIVMINDEPVSAAPRERVIDLVRSCKESILLTVIQP

Variants of: B1
Assay: abundance fitness (aPCA) (normalised: wild type 0, dead -1); higher = more abundant; growth selection in yeast, the domain comes from the species named
Conditions: Homo sapiens

Abundance fitness of substitutions, site by site:
P2: R -0.01 | G 0 | I 0.019 | T 0.007 | N -0.003 | K -0.051 | A -0.074 | H 0.023
L13: F -0.046 | V -0.003 | W -0.046 | S -0.013
V5: G -0.997 | H -0.349 | Q -0.522 | C -0.556 | A -0.219 | M -0.192 | S -0.623 | T -0.325 | E -0.192 | D -0.976 | Y -0.107 | L -0.154 | N -0.778 | F -0.085 | K -0.749 | R -0.679
F15: P -0.857 | K -0.905 | T -0.819 | V -0.815 | C -0.758 | R -0.911 | Q -0.776 | D -0.781 | H -0.828 | A -0.729 | L -0.26 | I -0.702 | M -0.392 | E -0.805 | S -0.777 | N -0.848
R3: D -0.659 | T -0.338 | V -0.165 | L -0.238 | F -0.194 | K -0.036 | E -0.517 | Q -0.243 | M -0.188 | Y -0.197 | W -0.769 | S -0.451 | I -0.099 | C -0.985 | G -0.666 | N -0.299 | H -0.176 | P -0.937
D10: H -0.12 | Y -0.521 | G -0.591 | W -0.422 | N -0.071 | I -0.364 | M -0.207 | E -0.27 | F -0.535 | Q -0.32 | R -0.455 | V -0.214 | T -0.38 | L -0.369 | K -0.42 | C -0.138 | S -0.099
R9: E -0.382 | A -0.066 | C -0.19 | V -0.217 | W -0.089 | Y -0.089 | T -0.277 | D -0.792 | P -0.086 | M -0.149 | K -0.031 | H -0.227 | N -0.157 | I -0.142 | G -0.402 | F -0.031 | Q -0.3 | S -0.152
K4: S -0.084 | N -0.218 | L -0.068 | R 0.114
V12: G -0.048 | Q 0 | F -0.089 | T 0.049 | W -0.14 | D 0.004 | M 0.007 | H 0.043 | I -0.055 | E -0.068 | R -0.023 | Y -0.065 | S -0.006 | N 0.025 | P -0.545 | K 0.004 | C -0.056 | L -0.001
G14: K -0.247 | I -0.719 | D -0.025 | R -0.496 | F -0.822 | S -0.273 | Y -0.761 | C -0.502 | T -0.718 | P -0.963 | M -0.404 | H -0.303 | N -0.131 | V -0.779 | L -0.677 | W -1
M7: F -0.085 | G -0.877 | A -0.213 | S -0.535 | N -1.07 | H -1.01 | Y -0.835 | W -1.02 | Q -0.937 | T -0.36 | I 0.018 | V -0.034 | C -0.247 | K -1 | L 0.04 | R -0.967 | E -0.918 | D -1.08
A1: I 0.122 | C 0.003 | G -0.157 | P -0.734 | W -0.569 | V -0.207 | D -0.046 | M -0.227 | Q -0.704 | T -0.278 | Y -0.14 | F -0.199 | S -0.207 | E -0.329
